Source: patent US20140286963A1

Tests used:
[1] = molecular target: murine BACE1 ECD (amino acids 1-457) (murine) (UniProt P56818); assay: SPR (BIAcore-3000), IgG captured by anti-human Fc antibody, BACE1 ECD injected, 25 C, pH 7.0
[2] = molecular target: murine BACE1 ECD (amino acids 1-457) (murine) (UniProt P56818); assay: SPR (BIAcore-3000), second unlabelled row under Mouse, IgG captured by anti-human Fc antibody, pH 7.0

murine BACE1 ECD (amino acids 1-457) (murine), sequence (P56818 22-457 limits assumed, form in doubt): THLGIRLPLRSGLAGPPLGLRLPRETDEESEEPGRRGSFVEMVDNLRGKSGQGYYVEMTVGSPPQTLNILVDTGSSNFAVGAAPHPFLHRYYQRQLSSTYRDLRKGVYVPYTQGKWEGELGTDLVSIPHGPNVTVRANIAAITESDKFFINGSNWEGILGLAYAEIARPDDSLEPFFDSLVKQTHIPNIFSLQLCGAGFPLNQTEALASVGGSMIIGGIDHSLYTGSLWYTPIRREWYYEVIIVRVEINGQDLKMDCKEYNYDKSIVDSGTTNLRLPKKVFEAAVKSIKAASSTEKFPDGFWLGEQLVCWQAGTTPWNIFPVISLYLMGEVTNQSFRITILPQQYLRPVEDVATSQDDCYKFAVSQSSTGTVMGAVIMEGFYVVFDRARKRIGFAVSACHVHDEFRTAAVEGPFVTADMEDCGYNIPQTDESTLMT

B1: YW412.8.31 anti-BACE1 human IgG (antibody, V domains shown)
VH: EVQLVESGGGLVQPGGSLRLSCAASGFTFLGYGIHWVRQAPGKGLEWVGWISPAGGSTDYADSVKGRFTISADTSKNTAYLQMNSLRAEDTAVYYCARGPFSPWVMDYWGQGTLVTVSS
VL: DIQMTQSPSSLSASVGDRVTITCRASQDVSTAVAWYQQKPGKAPKLLIYSASFLYSGVPSRFSGSGSGTDFTLTISSLQPEDFATYYCQQFPTYLPTFGQGTKVEIK
For B1, the Kd [1] was 2.1 nM, the koff [1] was 0.00029 s⁻¹ and the kon [1] was 140000 M⁻¹ s⁻¹. It also gave a Kd [2] of 1.4 nM, a koff [2] of 0.000141 s⁻¹ and a kon [2] of 101000 M⁻¹ s⁻¹.
